# According to patent US20170129921A1:
# pKi: −log10 of the molar value.
# Target: Human C5a receptor 2 (human) (UniProt Q9P296)
# Assay: 125I-C5a displacement, SPA on Flp-In CHO-C5a2 membranes
# Sequence of Human C5a receptor 2 (human) (Q9P296 whole entry): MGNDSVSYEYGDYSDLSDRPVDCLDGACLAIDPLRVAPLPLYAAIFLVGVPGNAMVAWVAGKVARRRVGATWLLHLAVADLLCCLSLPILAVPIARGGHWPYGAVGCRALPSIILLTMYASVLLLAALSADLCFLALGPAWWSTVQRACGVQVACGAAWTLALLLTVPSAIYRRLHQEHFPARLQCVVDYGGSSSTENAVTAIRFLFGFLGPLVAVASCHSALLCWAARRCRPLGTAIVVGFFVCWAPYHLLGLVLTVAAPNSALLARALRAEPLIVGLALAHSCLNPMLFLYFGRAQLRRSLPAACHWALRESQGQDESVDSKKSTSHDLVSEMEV
# Sequence of Human isolated C3a-des Arg, P01024 672-747 (ligand; other documents disagree on this pair) (P01024 672-747 limits assumed): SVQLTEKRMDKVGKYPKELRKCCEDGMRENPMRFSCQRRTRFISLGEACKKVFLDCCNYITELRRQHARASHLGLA
# Sequence of Human isolated C3a, P01024 672-748 (ligand; other documents disagree on this pair) (P01024 672-748): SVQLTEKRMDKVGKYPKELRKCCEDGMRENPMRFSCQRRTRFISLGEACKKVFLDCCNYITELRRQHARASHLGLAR
row,Substance,pKi
1,"Human isolated C3a, P01024 672-748 (ligand; other documents disagree on this pair)",< 6.00
2,"Human isolated C3a-des Arg, P01024 672-747 (ligand; other documents disagree on this pair)",< 6.00
